B1: MTMR15 (parent)
chain: YVKAKKSIDKDEEFAGSSPQSSKS
B2: RSPH3 (parent)
chain: VDVQTELYLEEIADRIIEVDMECQ

Variants of: B1
Assay: protein stability index of a GFP-peptide fusion (GPS, HEK-293T) (PSI 1-6); higher = more stable
Details: c terminus: a fixed tail appended
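Further: lentivirally expressed fusions sorted by FACS into six bins by GFP to DsRed ratio, PSI derived from sequencing read proportions per bin multiplied by bin number.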

Protein stability index: each site, then its substitutions
Y1: W 4.66, R 5.62
Q20: A 2.66
D11: Y 2.77
K3: H 3.22
I8: H 3.28
K10: A 3.63, Y 2.72, H 3.61
S17: H 3.07
S22: I 3.18, C 3.08
F14: P 3.74, K 3.29, Y 3.5
S7: R 3.22, H 3.05, T 2.96
G16: I 2.86
E12: K 2.7, D 2.69
K23: E 3.55, M 3.1
V2: Y 5.39
S21: M 3.31
S18: F 2.67, D 3.18, Q 2.93
A4: M 3.31, R 3.32, L 3.04
D9: L 2.76

Variants of: B2
Assay: as above
Details: c terminus: a fixed tail appended

Protein stability index, by site and new letter:
E10: R 2.15, D 2.54, T 1.86, C 1.58, Y 3.16, A 1.53, K 2.48, G 2.42, N 2.06, Q 1.93, P 3.62
D14: K 1.93, S 2.08, E 1.92, W 3.47, Q 2.32, T 1.93, N 2.11, H 1.55
T5: M 2.38, Q 2.52, P 3.27, G 2.46, R 3.09, A 2.3, K 3.87, E 3.08, D 3.17, S 2.5, Y 3.42
I17: L 2.17, N 2.81, F 1.96, E 3.87, C 2.58, V 2.39, Y 2.09, P 4.26, D 3.99, G 4.14, S 3.74
Q4: F 3.48, N 1.85, P 2.39, G 3.62, E 2.32, M 2.07, H 3.22, A 2.19, D 1.45, S 2.7, Y 1.66
E18: R 2.51, Q 1.57, P 2.79, C 2.48, M 1.94, G 2.86, W 2.23, S 2.44, H 2.31, N 2.7, V 2.85, I 2.01
I12: A 4.36, W 1.12, L 1.72, S 4.98, E 4.84, C 3.22, P 4.53, H 4.28, T 4.42, G 4.63, M 3.11, V 2.91, K 4.77, N 4.46, Q 4.37, D 4.39
M21: N 2.99, G 4.38, R 3.8, P 4.45, Y 1.94, F 1.47, Q 2.49, D 4.54, W 1.76, S 3.85, H 3.59, I 1.91, T 3.43, E 3.85, C 2.38, L 1.66
L9: A 4.01, G 4.44, W 1.97, Q 5.62, H 4.71, Y 2.79, C 3.4, E 5.12, D 5.51, M 3.33, R 4.19
Q24: S 2.72, A 1.95, D 2.82, V 1.84, F 1.14, M 1.59, T 3.69, C 2.32, P 3.33, R 2.52, W 1.5, L 1.33, Y 2.69, I 2.32, E 2.31, G 2.79, N 2.05, K 2.12
V1: Q 3.25, H 3.24, I 1.64, F 1.55, N 3.75, A 3.1, Y 1.94, L 1.72, D 3.3, E 3.11, W 2.44
L7: T 3, N 3.96, R 2.65, W 2.04, Q 3.41, Y 2.34, C 3.01, M 1.73, H 3.38, I 2.1, P 3.07, G 4.11
E6: D 2.03, T 1.83, K 2.44, C 1.57, L 1.65, G 3.25, A 1.73, H 2.19, R 2.52, P 3.41, N 2.18, W 2.21, Q 2.14, M 3.63, S 2.39, V 2.24
E11: T 2.41, K 2.85, S 2.02, H 2.23, P 2.98, C 2.83, Q 2.73, D 1.82, I 3.16, A 1.95, Y 2.88, G 2.48
V19: H 3.55, W 2.28, N 4.1, C 1.89, M 2.79, F 2.3, L 1.59, E 4.65, S 4.1, I 2.36
I16: D 4.54, H 4.19, Q 4.18, E 4.48, R 3.23, G 4.3, C 2.85, A 3.63, P 4.93, V 3.37, K 4.49
V3: P 3.36, C 2.35, E 2.66, S 2.56, H 2.4, M 2.26, W 2.14, G 3.74, R 3.38, N 2.99, L 3.01, K 2.7, D 2.66, A 3.22
C23: P 4.06, A 3.46, L 3.52, G 3.72, N 3.87, W 1.88, D 4.4, R 3.46, F 2.07, I 2.23, Y 2.71, Q 4.31, K 4.46, T 3.68, H 4.03
D20: I 3.01, V 2.51, G 1.85, S 1.65, N 1.82, E 1.71, F 3.1, Y 4.28, H 2.46, L 4.62, K 2.24, Q 3.34
D2: S 1.81, A 1.63, N 2.17, Y 3.84, T 2.39, R 1.76, C 2.57, L 2.6, M 3.88, E 2.51
R15: M 2.24, C 1.54, T 2.56, H 2.77, F 2.31, P 3.73, A 2.55, V 2.65, K 3.1, D 3.17, Y 2.79, W 3.01, N 3.66, S 3.16
A13: Y 1.53, F 2.41, C 2.31, S 2.57, P 3.53, H 2.5, R 2.27, V 2.17, K 3.05, M 1.58, W 1.65, T 2.62, D 3.9
E22: P 2.88, S 2.22, F 1.9, C 1.89, D 2.77, Q 2.01, Y 2.82, A 1.99, M 2.83, R 2.03, N 2.86, I 2.81, K 2.27, H 2.06, G 3.05
Y8: N 4, A 4.03, W 2.51, E 4.48, F 1.92, S 3.65, C 3.04, T 3.5, M 2.34, Q 4.25, P 3.77, V 2.85
